From publication PMC4365169 (Nature Communications, 2014)

Target: actin filaments (F-actin, rabbit skeletal muscle) (rabbit, UniProt P68135 1-377)
Assay: co-sedimentation

Kd: ~5 µM
B1: GFP–TipAct (other)
chain: DERDRVQKKTFTKWVNKHLMKVRKHINDLYEDLRDGHNLISLLEVLSGIKLPREKGRMRFHRLQNVQIALDFLKQRQVKLVNIRNDDITDGNPKLTLGLIWTIILHFQISDIYISGESGDMSAKEKLLLWTQKVTAGYTGIKCTNFSSCWSDGKMFNALIHRYRPDLVDMERVQIQSNRENLEQAFEVAERLGVTRLLDAEDVDVPSPDEKSVITYVSSIYDAFPKVPEGGEGEMANRLAGLENSLESEKVSREQLIKQKDQLNSLLASLESEGAEREKRLRELEAKLDETLKNLELEKLARMELEARLAKTEKDRAILELKLAEAIDEKSKLEESSAAGGQGNSRRGLNKPSKIPTMSKKTTTASPRTPGPKR
